# Positions count from the first letter of the chain named.
# T1: human PAC1 receptor (human, UniProt P41586 21-468)
# T1 sequence: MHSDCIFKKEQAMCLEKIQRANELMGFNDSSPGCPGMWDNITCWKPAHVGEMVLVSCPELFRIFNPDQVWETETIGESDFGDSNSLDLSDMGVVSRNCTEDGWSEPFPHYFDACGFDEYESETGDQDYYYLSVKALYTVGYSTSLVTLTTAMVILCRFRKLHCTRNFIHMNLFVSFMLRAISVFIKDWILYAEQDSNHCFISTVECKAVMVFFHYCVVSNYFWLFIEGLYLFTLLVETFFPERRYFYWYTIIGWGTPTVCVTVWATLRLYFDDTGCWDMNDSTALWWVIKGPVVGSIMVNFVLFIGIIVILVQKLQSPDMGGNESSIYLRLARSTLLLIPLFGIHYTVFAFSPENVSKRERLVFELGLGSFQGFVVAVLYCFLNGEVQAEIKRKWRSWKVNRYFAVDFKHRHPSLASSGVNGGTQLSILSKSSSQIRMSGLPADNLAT
# B1: iPS:327875 (bispecific antibody, human IgG1, kappa, N297G)
# light 1: not shown
# heavy 1: not shown
# light 2: EIVLTQSPGTLSLSPGERATLSCRASQSVSSGYLTWYQQKPGQAPRLLIYGASSRATGIPDRFSGSGSGTDFTLTISRLEPEDFAVYYCQQYGNSLSRFGKGTKLEIKRTVAAPSVFIFPPSDEQLKSGTASVVCLLNNFYPREAKVQWKVDNALQSGNSQESVTEQDSKDSTYSLKSTLTLSKADYEKHKVYACEVTHQGLSSPVTKSFNRGEC
# heavy 2: QVQLVESGGGVVQPGRSLRLSCAASGFTFSSYGMHWVRQAPGKELEWVAVIWYDGSNKYYAESVKGRFIISRDKSKNTLYLQMNSLRAEDTAVYYCARAGGIAAAGLYYYYGMDVWGQGTTVTVSSASTKGPSVFPLAPSSKSTSGGTAALGCLVKDYFPEPVTVSWNSGALTSGVHTFPAVLQSSGLYSLESVVTVPSSSLGTQTYICNVNHKPSNTKVDKKVEPKSCDKTHTCPPCPAPELLGGPSVFLFPPKPKDTLMISRTPEVTCVVVDVSHEDPEVKFNWYVDGVEVHNAKTKPCEEQYGSTYRCVSVLTVLHQDWLNGKEYKCKVSNKALPAPIEKTISKAKGQPREPQVYTLPPSRKEMTKNQVSLTCLVKGFYPSDIAVEWESNGQPENNYKTTPPVLKSDGSFFLYSKLTVDKSRWQQGNVFSCSVMHEALHNHYTQKSLSLSPGK
# B2: iPS:327876 (bispecific antibody, human IgG1, kappa, N297G)
# light 1: DIQMTQSPSSLSASVGDRITITCRASQSISRYLNWYQQKPGKAPKLLIYAASSLQSGIPSRFSGSGSGTDFTLTINSLQPEDFATYFCQQSYSPPFTFGQGTKVDIKRTVAAPSVFIFPPSDEQLKSGTASVVCLLNNFYPREAKVQWKVDNALQSGNSQESVTEQDSKDSTYSLESTLTLSKADYEKHKVYACEVTHQGLSSPVTKSFNRGEC
# heavy 1: not shown
# light 2: B1 light 2 with K101Q
# heavy 2: not shown
# B3: iPS:327877 (bispecific antibody, human IgG1, kappa, N297G)
# light 1: not shown
# heavy 1: not shown
# light 2: B1 light 2 with K101Q
# heavy 2: not shown
# B4: iPS:327728 (bispecific antibody, human IgG1, kappa, lambda, N297G)
# light 1: not shown
# heavy 1: not shown
# light 2: QSVLTQPPSVSAAPGQKVTISCSGSSSNIGNNYVSWYQQLPGTAPKLLIYDNNKRPSGIPDRFSGSKSGTSATLAITGLQTGDEADYYCGTWDSRLSAVVFGGGTKLTVLGQPKANPTVTLFPPSSEELQANKATLVCLISDFYPGAVTVAWKADGSPVKAGVETTKPSKQSNNKYAAKSYLSLTPEQWKSHRSYSCQVTHEGSTVEKTVAPTECS
# heavy 2: QVQLVESGGGVVQPGRSLRLSCAASGFTFSSFGMHWVRQAPGKGLEWVAVISFDGSIKYSVDSVKGRFTISRDNSKNTLFLQMNSLRAEDTAVYYCARDRLNYYDSSGYYHYKYYGMAVWGQGTTVTVSSASTKGPSVFPLAPSSKSTSGGTAALGCLVKDYFPEPVTVSWNSGALTSGVHTFPAVLQSSGLYSLESVVTVPSSSLGTQTYICNVNHKPSNTKVDKKVEPKSCDKTHTCPPCPAPELLGGPSVFLFPPKPKDTLMISRTPEVTCVVVDVSHEDPEVKFNWYVDGVEVHNAKTKPCEEQYGSTYRCVSVLTVLHQDWLNGKEYKCKVSNKALPAPIEKTISKAKGQPREPQVYTLPPSRKKMTKNQVSLTCLVKGFYPSDIAVEWESNGQPENNYKTTPPVLKSDGSFFLYSKLTVDKSRWQQGNVFSCSVMHEALHNHYTQKSLSLSPGK
# B5: iPS:327738 (bispecific antibody, human IgG1, kappa, lambda, N297G)
# light 1: EIVLTQSPATLSLSPGERATLSCRASQSVGRSLHWYQQKPGQAPRLLIKYASQSLSGIPARFSGSGSGTDFTLTISSLEPEDFAVYYCHQSSRLPFTFGEGTKVDIKRTVAAPSVFIFPPSDEQLKSGTASVVCLLNNFYPREAKVQWKVDNALQSGNSQESVTEQDSKDSTYSLESTLTLSKADYEKHKVYACEVTHQGLSSPVTKSFNRGEC
# heavy 1: not shown
# light 2: B4 light 2 with A75G, G103K
# heavy 2: B4 heavy 2 with G44E, D105E, K370E
# B6: iPS:327739 (bispecific antibody, human IgG1, kappa, lambda, N297G)
# light 1: not shown
# heavy 1: not shown
# light 2: B4 light 2 with A75G
# heavy 2: B4 heavy 2 with D105E
# B7: iPS:327871 (bispecific antibody, human IgG2, kappa, lambda)
# light 1: DIQLTQSPSFLSASVGDRVTITCRASQSIGRSLHWYQQKPGKAPKLLIKYASQSLSGVPSRFSGSGSGTEFTLTISSLQPEDFATYYCHQSSRLPFTFGPGTKVDIKRTVAAPSVFIFPPSDEQLKSGTASVVCLLNNFYPREAKVQWKVDNALQSGNSQESVTEQDSKDSTYSLESTLTLSKADYEKHKVYACEVTHQGLSSPVTKSFNRGEC
# heavy 1: QVQLVESGAEVVKPGASVKVSCKASGFTFSRFAMHWVRQAPGQGLEWMGVISYDGGNKYYAESVKGRVTMTRDTSTSTLYMELSSLRSEDTAVYYCARGYDVLTGYPDYWGQGTLVTVSSASTKGPSVFPLAPCSRSTSESTAALGCLVKDYFPEPVTVSWNSGALTSGVHTFPAVLQSSGLYSLKSVVTVPSSNFGTQTYTCNVDHKPSNTKVDKTVERKCCVECPPCPAPPVAGPSVFLFPPKPKDTLMISRTPEVTCVVVDVSHEDPEVQFNWYVDGVEVHNAKTKPREEQFNSTFRVVSVLTVVHQDWLNGKEYKCKVSNKGLPAPIEKTISKTKGQPREPQVYTLPPSREEMTKNQVSLTCLVDGFYPSDIAVEWESNGQPENNYDTTPPMLDSDGSFFLYSDLTVDKSRWQQGNVFSCSVMHEALHNHYTQKSLSLSPGK
# light 2: B4 light 2 with A72T, A75G
# heavy 2: QVQLVESGGGVVQPGRSLRLSCAASGFTFSSFGMHWVRQAPGKGLEWVAVISFDGSIKYSVDSVKGRFTISRDNSKNTLFLQMNSLRAEDTAVYYCARDRLNYYDSSGYYHYKYYGMAVWGQGTTVTVSSASTKGPSVFPLAPCSRSTSESTAALGCLVKDYFPEPVTVSWNSGALTSGVHTFPAVLQSSGLYSLESVVTVPSSNFGTQTYTCNVDHKPSNTKVDKTVERKCCVECPPCPAPPVAGPSVFLFPPKPKDTLMISRTPEVTCVVVDVSHEDPEVQFNWYVDGVEVHNAKTKPREEQFNSTFRVVSVLTVVHQDWLNGKEYKCKVSNKGLPAPIEKTISKTKGQPREPQVYTLPPSRKKMTKNQVSLTCLVKGFYPSDIAVEWESNGQPENNYKTTPPMLKSDGSFFLYSKLTVDKSRWQQGNVFSCSVMHEALHNHYTQKSLSLSPGK
# B8: iPS:327741 (bispecific antibody, human IgG1, kappa, lambda, N297G)
# light 1: B7 light 1
# heavy 1: not shown
# light 2: B4 light 2 with A75G
# heavy 2: B4 heavy 2 with D105E
# B9: iPS:327740 (bispecific antibody, human IgG1, kappa, lambda, N297G)
# light 1: not shown
# heavy 1: not shown
# light 2: B4 light 2 with A75G
# heavy 2: B4 heavy 2 with D105E
# Target: human CGRP receptor (human, UniProt Q16602 23-461; O60894 27-148)
# Test: cell-based or functional assay
# Sequence of human CGRP receptor (Q16602 23-461 limits assumed, chain 1 of 2): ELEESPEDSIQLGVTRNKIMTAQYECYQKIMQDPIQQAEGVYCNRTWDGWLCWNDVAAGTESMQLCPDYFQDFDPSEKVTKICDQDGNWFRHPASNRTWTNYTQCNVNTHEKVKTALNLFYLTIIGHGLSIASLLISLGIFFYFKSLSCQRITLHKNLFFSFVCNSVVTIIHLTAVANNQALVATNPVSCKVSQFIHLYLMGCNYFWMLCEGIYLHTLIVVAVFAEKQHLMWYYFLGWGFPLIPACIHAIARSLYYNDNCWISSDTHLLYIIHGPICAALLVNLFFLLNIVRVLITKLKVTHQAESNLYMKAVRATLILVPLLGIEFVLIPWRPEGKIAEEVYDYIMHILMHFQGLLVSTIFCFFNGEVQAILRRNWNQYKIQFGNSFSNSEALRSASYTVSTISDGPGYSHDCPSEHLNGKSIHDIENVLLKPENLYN
# Sequence of human CGRP receptor (O60894 27-148 limits assumed, chain 2 of 2): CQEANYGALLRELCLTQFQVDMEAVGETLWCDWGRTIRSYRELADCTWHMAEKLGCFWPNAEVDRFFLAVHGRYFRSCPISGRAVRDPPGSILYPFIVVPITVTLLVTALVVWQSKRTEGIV
row,Binder,% inhibition of human CGRPR [%]
1,B1,83
2,B2,77
3,B3,72
4,B4,80
5,B5,85
6,B6,79
7,B7,65
8,B8,83
9,B9,74

# Target: T1, human PAC1 receptor
# Test: cell-based or functional assay
row,Binder,% inhibition of human PAC1 [%]
1,B1,10
2,B2,11
3,B3,22
4,B4,79
5,B5,93
6,B6,76
7,B7,68
8,B8,70
9,B9,58

# Source: patent US20170306033A1 (Amgen, published 2017)
